Measurements: paper PMC6711944, “Structural insights into the species preference of the influenza B virus NS1 protein in ISG15 binding” (Protein & Cell, 2018)

Legend:
[1] = target: T1, NS1B-NTR (1-103), N-terminal region of the influenza B virus NS1 protein (influenza B virus, UniProt P03502 1-103); experiment: ITC; about 0.5 mM ISG15 injected into 250 ul of 0.05 mM NS1B-NTR in the cell, 20 aliquots of 2 ul; 25 °C; 10 mM HEPES-sodium, 500 mM NaCl, pH 7.2; MicroCal iTC200; 'one set of sites' fitting model; details: both partners purified
T1 construct: not shown: GST, N-terminal, cleaved
T1 sequence: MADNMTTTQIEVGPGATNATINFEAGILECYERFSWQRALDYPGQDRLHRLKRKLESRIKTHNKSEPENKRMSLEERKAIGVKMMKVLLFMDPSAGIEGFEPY

[2] = target: the molecule itself; experiment: crystal structure; crystal structures of NS1B-NTR in complex with mISG15, cISG15 or bISG15
[3] = target: T2, hISG15 with the first two linker residues (Asp76, Lys77) converted to alanine (human, UniProt P05161 1-157, Asp76 to alanine | Lys77 to alanine); experiment: ITC; isothermal titration calorimetry of NS1B-NTR and ISG15 proteins; which was titrated and the conditions are not told in the text shown; details: both partners purified
T2 construct: also called the mutated hISG15

[4] = target: T3, human ISG15 (human, UniProt P05161 1-157); experiment: as above; details: both partners purified
T3 construct: also called hISG15

[5] = target: T4, murine ISG15 (murine, UniProt Q64339 1-155); experiment: as above; details: both partners purified
T4 construct: also called mISG15

[6] = target: T5, canine ISG15 (canine, UniProt A0A8I3P342 1-174); experiment: as above; details: both partners purified
T5 construct: also called cISG15

[7] = target: T6, bovine ISG15 (bovine, UniProt O02741 1-154); experiment: as above; details: both partners purified
T6 construct: also called bISG15

[8] = target: T7, hISG15-L10A (human, UniProt P05161 1-157, L10A); experiment: as above; details: both partners purified
T7 construct: Mutant of m2
T7 sequence (P05161 1-157 L10A): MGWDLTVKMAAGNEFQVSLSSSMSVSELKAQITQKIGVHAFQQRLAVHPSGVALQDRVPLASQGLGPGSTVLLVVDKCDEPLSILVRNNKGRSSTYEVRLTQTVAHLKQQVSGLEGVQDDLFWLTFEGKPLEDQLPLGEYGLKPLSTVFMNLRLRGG

T3 sequence (P05161 1-157): as the sequence (P05161 1-157 L10A) above, with A10L counted along it
T5 sequence (A0A8I3P342 entry or part of it): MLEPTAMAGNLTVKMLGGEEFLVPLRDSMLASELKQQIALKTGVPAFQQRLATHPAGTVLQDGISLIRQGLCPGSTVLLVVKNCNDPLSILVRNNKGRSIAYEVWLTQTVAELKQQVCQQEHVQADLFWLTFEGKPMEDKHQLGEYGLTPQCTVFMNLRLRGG
T2 sequence (P05161 other isoform, or with tags, fused parts or gaps with the stated changes): as the sequence (P05161 1-157 L10A) above, with A10L, D76A, K77A counted along it

B1: mISG15-Q74A-N75A (natural protein)
chain: MAWDLKVKMLGGNDFLVSVTNSMTVSELKKQIAQKIGVPAFQQRLAHQTAVLQDGLTLSSLGLGPSSTVMLVVAASSEPLSILVRNERGHSNIYEVFLTQTVDTLKKKVSQREQVHEDQFWLSFEGRPMEDKELLGEYGLKPQCTVIKHLRLRGG
notes: not shown: GST, N-terminal, cleaved
B1 gave a Kd [1] of 6 µM.

B2: bISG15-Q76A-N77A (natural protein)
chain: MGGDLTVKMLGGQEILVPLRDSMTVSELKQFIAQKINVPAFQQRLAHLDSREVLQEGVPLVLQGLRAGSTVLLVVAASISILVRNDKGRSSPYEVQLKQTVAELKQQVCQKERVQADQFWLSFEGRPMDDEHPLEEYGLMKGCTVFMNLRLRGG
notes: as for B1
Work on B2 yielded a Kd [1] of 10 µM.

B3: NS1B-NTR, containing the 103 N-terminal residues of NS1B (influenza B virus NS1 protein) (domain or fragment)
chain: MADNMTTTQIEVGPGATNATINFEAGILECYERFSWQRALDYPGQDRLHRLKRKLESRIKTHNKSEPENKRMSLEERKAIGVKMMKVLLFMDPSAGIEGFEPY
notes: the same region as in the cited hISG15/NS1B-NTR structure PDB 3RT3
With B3 the “stoichiometry N” value [2] was 2, the Kd [3] was 5 µM and the Kd [4] was 0.28 µM. The “stoichiometry N” value [4] was 1, the Kd [5] was 13 µM and the “stoichiometry N” value [5] was 1. For the same binder, the Kd [6] was 34 µM, the “stoichiometry N” value [6] was 1 and the Kd [7] was 12 µM. The “stoichiometry N” value [7] was 1 and the Kd [8] was 17 µM.
